The chains are these.
B1: MKP7 catalytic domain (MKP7-CD, residues 156-301) [human] / GST-JNK1 (wild type) [human] (parent complex)
chain 1: NIGPTRILPNLYLGCQRDVLNKELMQQNGIGYVLNASNTCPKPDFIPESHFLRVPVNDSFCEKILPWLDKSVDFIEKAKASNGCVLVHCLAGISRSATIAIAYIMKRMDMSLDEAYRFVKEKRPTISPNFNFLGQLLDYEKKIKNQ
chain 2: MSRSKRDNNFYSVEIGDSTFTVLKRYQNLKPIGSGAQGIVCAAYDAILERNVAIKKLSRPFQNQTHAKRAYRELVLMKCVNHKNIIGLLNVFTPQKSLEEFQDVYIVMELMDANLCQVIQMELDHERMSYLLYQMLCGIKHLHSAGIIHRDLKPSNIVVKSDCTLKILDFGLARTAGTSFMMTPYVVTRYYRAPEVILGMGYKENVDIWSVGCIMGEMIKGGVLFPGTDHIDQWNKVIEQLGTPCPEFMKKLQPTVRTYVENRPKYAGYSFEKLFPDVLFPADSEHNKLKASQARDLLSKMLVIDASKRISVDEALQHPYINVWYDPSEAEAPPPKIPDKQLDEREHTIEEWKELIYKEVMDLLE
B2: MKP5 catalytic domain (MKP5-CD, residues 320-467) [human] / GST-JNK1 (wild type) [human] (parent complex)
chain 1: AELTPILPFLFLGNEQDAQDLDTMQRLNIGYVINVTTHLPLYHYEKGLFNYKRLPATDSNKQNLRQYFEEAFEFIEEAHQCGKGLLIHCQAGVSRSATIVIAYLMKHTRMTMTDAYKFVKGKRPIISPNLNFMGQLLEFEEDLNNGVT
chain 2: B1 chain 2

The values that follow come from publication PMC4802042 (2016).

In one test the parent is B1. Description: GST pull-down; parent: 100; read off a plot.
In the case of chain 2 T228A, the percent of parent was ~72 % of wild-type JNK1.

Consider chain 2 T255A, for which the percent of parent was ~30 % of wild-type JNK1.

Consider chain 2 Q253A, for which the percent of parent is ~92 % of wild-type JNK1.

In the case of chain 2 I197D, the percent of parent was ~88 % of wild-type JNK1.

chain 2 I231D: the percent of parent is ~37 % of wild-type JNK1.

On to chain 2 V260D, for which the percent of parent is ~8 % of wild-type JNK1.

Regarding chain 2 R263A, the percent of parent was ~73 % of wild-type JNK1.

As for chain 2 D229A, the percent of parent was ~5 % of wild-type JNK1.

chain 2 H230D: the percent of parent was ~96 % of wild-type JNK1.

Variants of B2 are the subject of another test. Description: GST pull-down; parent: 100; read off a plot.
Turning to chain 2 T255A, the percent of parent is ~43 % of wild-type JNK1.

chain 2 I231D: the percent of parent is ~28 % of wild-type JNK1.

Consider chain 2 H230D, for which the percent of parent is ~98 % of wild-type JNK1.

Take chain 2 T228A: the percent of parent is ~88 % of wild-type JNK1.

In the case of chain 2 I197D, the percent of parent was ~49 % of wild-type JNK1.

With chain 2 Q253A, the percent of parent is ~67 % of wild-type JNK1.

Regarding chain 2 R263A, the percent of parent was ~98 % of wild-type JNK1.
